The text below walks through data of PMC2173062 (The Journal of Cell Biology, 2002).

The target in assay [1] is bovine Hsc70, recombinant wild type (bovine, UniProt P19120 1-650). Kind of assay: pull-down.
For assay [2], the target named is bovine Hsc70 R447H, recombinant mutant (bovine, UniProt P19120 1-650, R447H). As to the kind of experiment: pull-down.
Chain of bovine Hsc70 R447H, recombinant mutant (P19120 whole entry R447H): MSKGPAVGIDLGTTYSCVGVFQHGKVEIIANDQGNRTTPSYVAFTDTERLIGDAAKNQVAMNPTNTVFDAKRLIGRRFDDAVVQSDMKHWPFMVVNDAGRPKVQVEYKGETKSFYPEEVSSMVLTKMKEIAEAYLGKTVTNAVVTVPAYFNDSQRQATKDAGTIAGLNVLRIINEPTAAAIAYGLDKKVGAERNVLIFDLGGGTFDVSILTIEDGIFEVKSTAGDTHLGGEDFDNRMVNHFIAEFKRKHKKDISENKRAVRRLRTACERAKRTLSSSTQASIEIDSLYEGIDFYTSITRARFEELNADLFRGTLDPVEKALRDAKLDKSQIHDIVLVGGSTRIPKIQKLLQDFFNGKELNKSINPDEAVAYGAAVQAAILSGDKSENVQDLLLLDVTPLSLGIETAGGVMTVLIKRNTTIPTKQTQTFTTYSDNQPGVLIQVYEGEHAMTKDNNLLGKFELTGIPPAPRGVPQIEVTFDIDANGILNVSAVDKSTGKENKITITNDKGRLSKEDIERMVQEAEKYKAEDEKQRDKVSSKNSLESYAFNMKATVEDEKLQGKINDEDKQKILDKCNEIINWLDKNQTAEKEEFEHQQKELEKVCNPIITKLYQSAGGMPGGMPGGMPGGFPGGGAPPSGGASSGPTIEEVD

Chain of bovine Hsc70, recombinant wild type (P19120 whole entry): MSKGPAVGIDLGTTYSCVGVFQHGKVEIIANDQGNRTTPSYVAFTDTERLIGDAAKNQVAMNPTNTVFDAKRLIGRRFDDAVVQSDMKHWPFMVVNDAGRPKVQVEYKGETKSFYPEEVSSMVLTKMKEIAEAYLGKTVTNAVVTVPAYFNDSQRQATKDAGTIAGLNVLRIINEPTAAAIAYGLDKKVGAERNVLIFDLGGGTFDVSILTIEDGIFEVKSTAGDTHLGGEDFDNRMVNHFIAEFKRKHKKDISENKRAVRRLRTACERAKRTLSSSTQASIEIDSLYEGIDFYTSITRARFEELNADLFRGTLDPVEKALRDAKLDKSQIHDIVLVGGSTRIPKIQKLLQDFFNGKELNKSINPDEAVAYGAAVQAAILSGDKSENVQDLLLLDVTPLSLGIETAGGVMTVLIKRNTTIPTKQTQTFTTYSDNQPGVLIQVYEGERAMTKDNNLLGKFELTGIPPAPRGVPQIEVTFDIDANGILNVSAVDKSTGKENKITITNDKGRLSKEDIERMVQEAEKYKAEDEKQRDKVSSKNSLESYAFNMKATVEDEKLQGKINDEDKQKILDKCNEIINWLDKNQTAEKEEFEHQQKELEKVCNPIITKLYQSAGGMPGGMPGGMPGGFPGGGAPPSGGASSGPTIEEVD

B1: GST-J^aux, J-domain of bovine auxilin (residues 813-910) fused to GST (domain or fragment, UniProt Q27974 813-910, looked up)
chain: DPEKLKILEWIEGKERNIRALLSTMHTVLWAGETKWKPVGMADLVTPEQVKKVYRKAVLVVHPDKATGQPYEQYAKMIFMELNDAWSEFENQGQKPLY
With B1, the binding result in assay [1] and in assay [2] was “binds” in each case.
